# According to patent US20140017168A1:
# pEC50, pIC50: −log10 of the molar value.
# Legend:
# [1] = target: somatostatin receptors on AR42J cells (rat); test: apparent IC50, competition with 111In(DTPA-octreotide) on AR42J cells, 3 h at RT
# [2] = target: gastrin-releasing peptide receptor on PC-3 cells (UniProt P30550); test: competition with 125I-BBN on PC-3 cells, inhibitor 250 to 2 nM
# [3] = target: receptor for bombesin analogues (target not named where the EC50 values are printed) (UniProt P30550); test: assay and target not described at this place
# receptor for bombesin analogues (target not named where the EC50 values are printed), sequence (P30550 whole entry): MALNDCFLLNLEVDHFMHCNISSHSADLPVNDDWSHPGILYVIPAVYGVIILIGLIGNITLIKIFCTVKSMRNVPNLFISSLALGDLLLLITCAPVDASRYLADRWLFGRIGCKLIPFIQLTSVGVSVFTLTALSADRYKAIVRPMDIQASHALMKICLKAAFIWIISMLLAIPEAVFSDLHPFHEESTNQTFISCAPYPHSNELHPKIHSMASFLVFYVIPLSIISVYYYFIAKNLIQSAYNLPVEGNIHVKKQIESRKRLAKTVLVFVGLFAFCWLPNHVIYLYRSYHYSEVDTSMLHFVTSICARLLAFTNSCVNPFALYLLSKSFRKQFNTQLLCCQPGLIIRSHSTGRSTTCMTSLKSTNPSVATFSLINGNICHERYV
# somatostatin receptors on AR42J cells (rat), sequence (P30680 whole entry): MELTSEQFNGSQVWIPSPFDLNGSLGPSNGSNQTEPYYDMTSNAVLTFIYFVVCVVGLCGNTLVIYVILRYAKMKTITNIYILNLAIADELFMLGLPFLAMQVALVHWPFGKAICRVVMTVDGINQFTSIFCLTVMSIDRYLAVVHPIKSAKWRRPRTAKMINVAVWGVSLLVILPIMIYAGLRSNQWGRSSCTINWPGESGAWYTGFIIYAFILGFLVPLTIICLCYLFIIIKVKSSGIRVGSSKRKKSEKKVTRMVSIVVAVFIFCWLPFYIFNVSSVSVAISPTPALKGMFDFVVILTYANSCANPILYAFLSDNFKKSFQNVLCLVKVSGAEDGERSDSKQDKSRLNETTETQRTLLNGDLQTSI
# gastrin-releasing peptide receptor on PC-3 cells, sequence (P30550 whole entry): as the sequence (P30550 whole entry) above
Substance,pIC50 [1],further results
^115In(DTPA-octreotide) (peptide),8.20,
commercially available BBN peptide (BBN positive control),,pIC50 [2]: 7.61
"Al^19F(IMP466), IMP466 = NOTA-D-Phe-Cys-Phe-D-Trp-Lys-Thr-Cys-Throl (peptide)",8.44,
"^69Ga(IMP466), IMP466 = NOTA-D-Phe-Cys-Phe-D-Trp-Lys-Thr-Cys-Throl (peptide)",7.89,
^125I-Bombesin (Perkin-Elmer) (peptide),,pEC50 [3]: 7.23
